Where no end group is shown, it is not given here. The star is where a group is joined. Biotin = O=C1N[C@H]2[C@H](CS[C@H]2CCCCC(=O)*)N1
T1: granulocyte-colony stimulating factor receptor (G-CSFR), purified / soluble receptor used in the binding … (UniProt Q99062 25-627, limits assumed)
T1 construct: also called G-CSF receptor; soluble G-CSFR harvest
T1 sequence (looked up): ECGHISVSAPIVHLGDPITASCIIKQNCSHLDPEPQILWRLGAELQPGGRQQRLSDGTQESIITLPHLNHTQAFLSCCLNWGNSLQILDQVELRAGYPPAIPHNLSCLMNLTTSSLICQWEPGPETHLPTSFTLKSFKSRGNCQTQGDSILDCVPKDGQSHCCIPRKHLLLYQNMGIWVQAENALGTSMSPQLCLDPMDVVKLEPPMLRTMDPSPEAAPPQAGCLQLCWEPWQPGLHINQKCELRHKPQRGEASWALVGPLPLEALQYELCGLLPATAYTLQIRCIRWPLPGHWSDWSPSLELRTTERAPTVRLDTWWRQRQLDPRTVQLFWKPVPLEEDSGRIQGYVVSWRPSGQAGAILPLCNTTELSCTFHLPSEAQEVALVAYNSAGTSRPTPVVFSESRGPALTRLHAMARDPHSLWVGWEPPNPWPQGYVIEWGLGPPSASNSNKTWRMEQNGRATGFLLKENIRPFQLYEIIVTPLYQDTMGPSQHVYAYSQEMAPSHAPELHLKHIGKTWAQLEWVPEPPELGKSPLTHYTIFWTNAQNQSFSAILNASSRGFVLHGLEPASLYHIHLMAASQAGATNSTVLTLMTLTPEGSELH


How the values were obtained:
[1] = biological target: T1, granulocyte-colony stimulating factor …; test: SPA competition with 125I-G-CSF on G-CSFR-coated beads; hybrid grade, at or near the cutoff
Experimental: (§1) Streptavidin-coated scintillation proximity assay (SPA) beads (Amersham) were mixed with biotinylated anti-receptor immobilizing antibody (Ab179) followed by incubation with soluble G-CSFR harvest. Receptor-coated SPA beads were washed twice in PBS/0.1% BSA and distributed to wells of a white polystyrene 96-well microtiter plate (Packard). Serial dilutions of peptide or peptide mimetic were mixed with a constant amount of ¹²⁵I labeled G-CSF (10⁵ cpm; 1290 Ci/mmol) in PBS/0.1% BSA, added to wells containing receptor-coated SPA beads, and incubated overnight at 4° C. The binding of radiolabeled G-CSF to the receptor-coated SPA bead brings the isotope in close proximity to the scintillant, which allows the emitted radiation to stimulate the scintillant to emit light. […] The amount of ¹²⁵I labeled G-CSF that was bound at equilibrium was measured by counting the plate in a TopCount (Wallac) microtiter plate luminometer. The assay is conducted over a range of peptide concentrations and the results are graphed such that the y-axis represents the amount of bound ¹²⁵I labeled G-CSF and the x-axis represents the concentration of peptide or peptide mimetic. One can determine the concentration at which the peptide or peptide mimetic will reduce by 50% (IC₅₀) the amount of ¹²⁵I labeled G-CSF bound to immobilized G-CSFR. The dissociation constant (Kd) for the peptide should be similar to the measured IC₅₀ using the assay conditions described above.

[2] = biological target: T1, granulocyte-colony stimulating factor …; test: specific binding to G-CSFR (total minus non-specific binding with excess unlabeled ligand)
[3] = biological target: T1, granulocyte-colony stimulating factor …; test: SPA competition with 125I-G-CSF on G-CSFR-coated beads; grade defined in paragraph 137
Experimental: as §1

Row | IC50 [3] | Binder | further results
1 |  | LAHCLLRLEECAAG (also called Ex. No. 48) [Example 48 peptide LAHCLLRLEECAAG] | IC50 [1]: ~200 µM
2 |  | CFWSDWGQTC (also called Ex. No. 11) [Example 11 peptide CFWSDWGQTC] | binding result [2]: no binding
3 | ≤ 0.5 µM | LGIEGRTGGGLLDICELKLQECARRCN (also called Ex. No. 56) [Example 56 peptide LGIEGRTGGGLLDICELKLQECARRCN] | 
4 | ≤ 200 µM | H-DLWYLESKLEECARRCNG-NH2 (not fully specified (bridges); cysteine pairing not given here, also called Ex. No. 51) [Example 51 peptide DLWYLESKLEECARRCNG] | 
5 | ≤ 200 µM | H-DLWYLESKLEEAARRCNG-NH2 (also: homodimer via interchain disulfide between the Cys residues, also called Ex. No. 52) [Example 52 dimer of DLWYLESKLEEAARRCNG] | 
6 | ≤ 200 µM | H-DLWYLESKLEECARRANG-NH2 (also: disulfide at 12, other end not in the chain, T0034 draws this dimer as [H]-...-[NH2]; also called Ex. No. 50) [Example 50 dimer of DLWYLESKLEECARRANG] | 
7 | ≤ 0.5 µM | H-LLDICELKLQECARRCN-OH (also: oxidation state as tested not given here, active only after oxidation, as a dimer, also called Ex. No. 53; Ex. 78 peptide) [Example 53 peptide LLDICELKLQECARRCN (AF15846), oxidation state as tested not stated] | 
8 | ≤ 200 µM | Biotin-LLDICELKLQECARRAN (cysteine pairing not given here, also called Ex. No. 59) [Example 59 peptide Biotin-LLDICELKLQECARRAN] | 
9 | ≤ 200 µM | H-LLDICELKLQEAARRCN-OH (not fully specified (bridges); cysteine pairing not given here, also called Ex. No. 58) [Example 58 peptide LLDICELKLQEAARRCN] | 
10 | ≤ 200 µM | LLDICELKLQECARRAN (not fully specified (bridges); cysteine pairing not given here, also called Ex. No. 57) [Example 57 peptide LLDICELKLQECARRAN] | 
11 | ≤ 200 µM | H-LLDIAELKLQECARRCN-OH (not fully specified (bridges); cysteine pairing not given here, also called Ex. No. 61) [Example 61 peptide LLDIAELKLQECARRCN] | 
12 | ≤ 0.5 µM | GRTGGGLLDICELKLQECARRCN (also called Ex. No. 55) [Example 55 peptide GRTGGGLLDICELKLQECARRCN] | 
13 |  | CQRAGYMLAC (also called Ex. No. 8) [Example 8 peptide CQRAGYMLAC] | binding result [2]: no binding
14 |  | CESRLVECSRM (also called Ex. No. 47) [Example 47 peptide CESRLVECSRM] | IC50 [1]: ~200 µM
15 |  | Example 64 lysine-linked dimer MLAERKAEERRWFNTHGRE / MLAERKAEERRWFNTHGREK (also: chain 1 C-terminus joined to the C-terminal Lys of chain 2 (branch link drawn), also called Ex. No. 64) peptide 1: MLAERKAEERRWFNTHGRE peptide 2: MLAERKAEERRWFNTHGREK-NH2 | IC50 [1]: ~200 µM
16 | ≤ 200 µM | YLELCQLRLEECARQFN (also called Ex. No. 70) [Example 70 peptide YLELCQLRLEECARQFN] | 
17 | ≤ 200 µM | H-STAERLWFCG-NH2 (also: homodimer via interchain disulfide between the Cys residues, also called Ex. No. 37; Ex. 76) [Example 37 dimer of NH2-STAERLWFCG-CONH2] | 
18 | ≤ 0.5 µM | GGGLLDICELKLQECARRCN (also called Ex. No. 54) [Example 54 peptide GGGLLDICELKLQECARRCN] | 
19 |  | CETLCGACFC (also called Ex. No. 15) [Example 15 peptide CETLCGACFC] | binding result [2]: no binding
20 | ≤ 200 µM | H-EQSNSGWVWVGGGGC-NH2 (also called Ex. No. 45) [Example 45 peptide NH2-EQSNSGWVWVGGGGC-CONH2 (monomer)] | 
21 |  | ALLMCESKLAECARAR (also called Ex. No. 49) [Example 49 peptide ALLMCESKLAECARAR] | IC50 [1]: ~200 µM
22 | ≤ 200 µM | Biotin-KLLDICELKLQEAARRCN (cysteine pairing not given here, also called Ex. No. 60) [Example 60 peptide Biotin-KLLDICELKLQEAARRCN] | 
23 | ≤ 200 µM | CSTGGGLTAERDAEKRRWLLTHGGE (also: homodimer linked through the N-terminal Cys residues, also called Ex. No. 67) [Example 67 dimer of CSTGGGLTAERDAEKRRWLLTHGGE] | 
24 |  | CTWTDLESVY (also called Ex. No. 10) [Example 10 peptide CTWTDLESVY] | binding result [2]: no binding
25 | ≤ 200 µM | Biotin-KGGGMLAERKAEERRWFNTHGRE (also called Ex. No. 63) [Example 63 peptide Biotin-KGGGMLAERKAEERRWFNTHGRE] | 
26 | ≤ 200 µM | H-EQSNSGWVWVGGGGC-NH2 (also: homodimer linked through the C-terminal Cys residues, also called Ex. No. 46) [Example 46 dimer of NH2-EQSNSGWVWVGGGGC-CONH2] | 
27 | ≤ 200 µM | CGCHVSPVQIKALC (also called Ex. No. 71) [Example 71 peptide CGCHVSPVQIKALC] | 
28 | ≤ 200 µM | Biotin-KLLDIAELKLQECARRCN (cysteine pairing not given here, also called Ex. No. 62) [Example 62 peptide Biotin-KLLDIAELKLQECARRCN] | 
29 | ≤ 200 µM | H-EQSNSGWVWV-NH2 (also called Ex. No. 35; Ex. 74) [Example 35 peptide NH2-EQSNSGWVWV-CONH2] | 
30 |  | CHANPVWGEC (also called Ex. No. 9) [Example 9 peptide CHANPVWGEC] | binding result [2]: no binding
